Experimental data taken from patent US20110091994A1, “Methods for Screening Compounds for Treating and/or Preventing an Hepatitis C Virus Infection” (priority 2008, published 2011).
Read-outs that look alike come from different tables or passages of the source.

B1: GBP2 (protein, UniProt P32456 1-588, looked up)
Guanylate-binding protein 2: MAPEINLPGPMSLIDNTKGQLVVNPEALKILSAITQPVVVVAIVGLYRTGKSYLMNKLAGKKNGFSLGSTVKSHTKGIWMWCVPHPKKPEHTLVLLDTEGLGDIEKGDNENDSWIFALAILLSSTFVYNSMGTINQQAMDQLHYVTELTDRIKANSSPGNNSVDDSADFVSFFPAFVWTLRDFTLELEVDGEPITADDYLELSLKLRKGTDKKSKSFNDPRLCIRKFFPKRKCFVFDWPAPKKYLAHLEQLKEEELNPDFIEQVAEFCSYILSHSNVKTLSGGIPVNGPRLESLVLTYVNAISSGDLPCMENAVLALAQIENSAAVEKAIAHYEQQMGQKVQLPTETLQELLDLHRDSEREAIEVFMKNSFKDVDQMFQRKLGAQLEARRDDFCKQNSKASSDCCMALLQDIFGPLEEDVKQGTFSKPGGYRLFTQKLQELKNKYYQVPRKGIQAKEVLKKYLESKEDVADALLQTDQSLSEKEKAIEVERIKAESAEAAKKMLEEIQKKNEEMMEQKEKSYQEHVKQLTEKMERDRAQLMAEQEKTLALKLQEQERLLKEGFENESKRLQKDIWDIQMRSKSLEPIC
B2: VPS52 (protein, UniProt Q8N1B4 2-723, looked up)
Vacuolar protein …: AAAATMAAAARELVLRAGTSDMEEEEGPLAGGPGLQEPLQLGELDITSDEFILDEVDVHIQANLEDELVKEALKTGVDLRHYSKQVELELQQIEQKSIRDYIQESENIASLHNQITACDAVLERMEQMLGAFQSDLSSISSEIRTLQEQSGAMNIRLRNRQAVRGKLGELVDGLVVPSALVTAILEAPVTEPRFLEQLQELDAKAAAVREQEARGTAACADVRGVLDRLRVKAVTKIREFILQKIYSFRKPMTNYQIPQTALLKYRFFYQFLLGNERATAKEIRDEYVETLSKIYLSYYRSYLGRLMKVQYEEVAEKDDLMGVEDTAKKGFFSKPSLRSRNTIFTLGTRGSVISPTELEAPILVPHTAQRGEQRYPFEALFRSQHYALLDNSCREYLFICEFFVVSGPAAHDLFHAVMGRTLSMTLKHLDSYLADCYDAIAVFLCIHIVLRFRNIAAKRDVPALDRYWEQVLALLWPRFELILEMNVQSVRSTDPQRLGGLDTRPHYITRRYAEFSSALVSINQTIPNERTMQLLGQLQVEVENFVLRVAAEFSSRKEQLVFLINNYDMMLGVLMERAADDSKEVESFQQLLNARTQEFIEELLSPPFGGLVAFVKEAEALIERGQAERLRGEEARVTQLIRGFGSSWKSSVESLSQDVMRSFTNFRNGTSIIQGALTQLIQLYHRFHRVLSQPQLRALPARAELINIHHLMVELKKHKPNF
B3: RASAL2 (protein, UniProt Q9UJF2 1-1139, looked up)
Ras GTPase-activating protein …: MQTPEVPAERSPRRRSISGTSTSEKPNSMDTANTSPFKVPGFFSKRLKGSIKRTKSQSKLDRNTSFRLPSLRSTDDRSRGLPKLKESRSHESLLSPCSTVECLDLGRGEPVSVKPLHSSILGQDFCFEVTYLSGSKCFSCNSASERDKWMENLRRTVQPNKDNCRRAENVLRLWIIEAKDLAPKKKYFCELCLDDTLFARTTSKTKADNIFWGEHFEFFSLPPLHSITVHIYKDVEKKKKKDKNNYVGLVNIPTASVTGRQFVEKWYPVSTPTPNKGKTGGPSIRIKSRFQTITILPMEQYKEFAEFVTSNYTMLCSVLEPVISVRNKEELACALVHILQSTGRAKDFLTDLVMSEVDRCGEHDVLIFRENTIATKSIEEYLKLVGQQYLHDALGEFIKALYESDENCEVDPSKCSSSELIDHQSNLKMCCELAFCKIINSYCVFPRELKEVFASWKQQCLNRGKQDISERLISASLFLRFLCPAIMSPSLFNLMQEYPDDRTSRTLTLIAKVIQNLANFAKFGNKEEYMAFMNDFLEHEWGGMKRFLLEISNPDTISNTPGFDGYIDLGRELSVLHSLLWEVVSQLDKGENSFLQATVAKLGPLPRVLADITKSLTNPTPIQQQLRRFTEHNSSPNVSGSLSSGLQKIFEDPTDSDLHKLKSPSQDNTDSYFRGKTLLLVQQASSQSMTYSEKDERESSLPNGRSVSLMDLQDTHAAQVEHASVMLDVPIRLTGSQLSITQVASIKQLRETQSTPQSAPQVRRPLHPALNQPGGLQPLSFQNPVYHLNNPIPAMPKASIDSSLENLSTASSRSQSNSEDFKLSGPSNSSMEDFTKRSTQSEDFSRRHTVPDRHIPLALPRQNSTGQAQIRKVDQGGLGARAKAPPSLPHSASLRSTGSMSVVSAALVAEPVQNGSRSRQQSSSSRESPVPKVRAIQRQQTQQVQSPVDSATMSPVERTAAWVLNNGQYEEDVEETEQNLDEAKHAEKYEQEITKLKERLRVSSRRLEEYERRLLVQEQQMQKLLLEYKARLEDSEERLRRQQEEKDSQMKSIISRLMAVEEELKKDHAEMQAVIDAKQKIIDAQEKRIVSLDSANTRLMSALTQVKERYSMQVRNGISPTNPTKLSITENGEFKNSSC
B4: NAP1L2 (protein, UniProt Q9ULW6 1-460, looked up)
Nucleosome assembly protein …: MAESENRKELSESSQEEAGNQIMVEGLGEHLERGEDAAAGLGDDGKCGEEAAAGLGEEGENGEDTAAGSGEDGKKGGDTDEDSEADRPKGLIGYVLDTDFVESLPVKVKYRVLALKKLQTRAANLESKFLREFHDIERKFAEMYQPLLEKRRQIINAIYEPTEEECEYKSDSEDCDDEEMCHEEMYGNEEGMVHEYVDEDDGYEDYYYDYAVEEEEEEEEEDDIEATGEENKEEEDPKGIPDFWLTVLKNVDTLTPLIKKYDEPILKLLTDIKVKLSDPGEPLSFTLEFHFKPNEYFKNELLTKTYVLKSKLAYYDPHPYRGTAIEYSTGCEIDWNEGKNVTLKTIKKKQKHRIWGTIRTVTEDFPKDSFFNFFSPHGITSNGRDGNDDFLLGHNLRTYIIPRSVLFFSGDALESQQEGVVREVNDAIYDKIIYDNWMAAIEEVKACCKNLEALVEDIDR
B5: PSMB9 (protein, UniProt P28065 21-219, looked up)
Proteasome subunit beta type-9: TTIMAVEFDGGVVMGSDSRVSAGEAVVNRVFDKLSPLHERIYCALSGSAADAQAVADMAAYQLELHGIELEEPPLVLAAANVVRNISYKYREDLSAHLMVAGWDQREGGQVYGTLGGMLTRQPFAIGGSGSTFIYGYVDAAYKPGMSPEECRRFTTDAIALAMSRDGSSGGVIYLVTITAAGVDHRVILGNELPKFYDE
B6: CCDC21 (protein, UniProt Q6P2H3 1-762, looked up)
Centrosomal protein of 85 kDa: MAMQEKYPTEGISHVTSPSSDVIQKGSSLGTEWQTPVISEPFRSRFSRCSSVADSGDTAIGTSCSDIAEDFCSSSGSPPFQPIKSHVTIPTAHVMPSTLGTSPAKPNSTPVGPSSSKLPLSGLAESVGMTRNGDLGAMKHSPGLSRDLMYFSGATGENGIEQSWFPAVGHERQEEARKFDIPSMESTLNQSAMMETLYSDPHHRVRFHNPRTSTSKELYRVLPEAKKAPGSGAVFERNGPHSNSSGVLPLGLQPAPGLSKPLPSQVWQPSPDTWHPREQSCELSTCRQQLELIRLQMEQMQLQNGAICHHPAAFGPSLPILEPAQWISILNSNEHLLKEKELLIDKQRKHISQLEQKVRESELQVHSALLGRPAPFGDVCLLRLQELQRENTFLRAQFAQKTEALSREKIDLEKKLSASEVEVQLIRESLKVALQKHSEEVKKQEERVKGRDKHINNLKKKCQKESEQNREKQQRIETLERYLADLPTLEDHQKQSQQLKDSELKSTELQEKVTELESLLEETQAICREKEIQLESLRQREAEFSSAGHSLQDKQSVEETSGEGPEVEMESWQKRYDSLQKIVEKQQQKMDQLRSQVQSLEQEVAQEEGTSQALREEAQRRDSALQQLRTAVKELSVQNQDLIEKNLTLQEHLRQAQPGSPPSPDTAQLALELHQELASCLQDLQAVCSIVTQRAQGHDPNLSLLLGIHSAQHPETQLDLQKPDVIKRKLEEVQQLRRDIEDLRTTMSDRYAQDMGENCVTQ

Experiments:
Assay type in all cases: binding, HCV genotype 1b, isolate con1
[1] = tested on: HCV ORFs (Gal4-DB fusions); conditions: human protein listed by gene symbol; the value names the HCV protein it interacts with
[2] = target: T1, HCV ORFs (Gal4-DB fusions) (Hepatitis C virus genotype 1b, UniProt Q9WMX2); conditions: human protein as prey
T1 construct: expressed in transfected cells; host or cells: Saccharomyces cerevisiae MAV203 (IMAP1) / AH109 (IMAP2)

[3] = target: T2, GST-tagged viral proteins (Hepatitis C virus genotype 1b, UniProt Q9WMX2); assay: Validation by co-affinity purification (CoAP); set-up: key: +: IMAP validation; −: not validated; NA: non assayable due to default of protein expression or to cellular protein directly interacting with GST
T2 construct: expressed in transfected cells; host or cells: HEK-293T
Text: C. Validation of Y2H interactions by co-affinity purification assay. Nine co-AP positive assays are shown, representing: NS5A-SORBS2 (1), NS3-CALCOCO2 (2), NS5A-BIN1 (3), NS5A-MOBK1B (4), NS5A-EFEMP1 (5), NS3-PSMB9 and NS5A-PSMB9 (6), NS5A-PPPIRI3L (7), NS3-RASAL2 (8). After pull-down with GST tagged viral baits (+) or with negative control GST alone (−), cellular preys are identified with anti-Flag antibody. Anti-GST antibody identifies either GST alone or GST-tagged viral baits. Expression of cellular preys in cell lysate is controlled by anti-Flag (bottom panel). […]
A random pool of 59 IMAP Y2H interactions was chosen for CoAP assays. Cellular ORFs (interacting domains found in Y2H screens) were cloned by recombinational cloning from a pool of human cDNA library or the MGC cDNA plasmids using KOD polymerase (Toyobo) into pDONR207 (Invitrogen). After validation by sequencing, these ORFs were transferred to pCi-neo-3xFLAG gateway-converted, and HCV ORFs were transferred into pDEST27 (GST fusion in N-term). HEK-293T cells were then co-transfected (JetPei, Polyplus) by each pair of plasmid encoding interacting proteins. Controls are GST alone against 3xFLAG-tagged preys. Two days after transfection, cells were harvested and lysed (0.5% NP-40, 20 mM Tris-HCl (pH 8.0), 180 mM NaCl, 1 mM EDTA, and complete protease inhibitor cocktail). Cell lysates were cleared by centrifugation for 20 min at 13,000 rpm at 4° C. and soluble protein complexes were purified using Glutathione Sepharose 4B beads (GE Healthcare). Beads were then washed extensively four times with lysis buffer and proteins were separated on SDS-PAGE and transferred to nitrocellulose membrane. GST-tagged viral proteins and 3xFLAG-tagged cellular proteins were detected using standard immunoblotting techniques using anti-GST (Covance) and anti-FLAG M2 (Sigma) monoclonal antibodies (21).

[4] = validation of interaction with HCV protein NS3
[5] = interaction with HCV protein NS5A
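Wherever IMAP Y2H IMAP2 (number of IST) is given: yeast two-hybrid screens using HCV genotype 1b proteins fused to Gal4-DB as baits against prey cDNA libraries from human spleen and foetal brain, IMAP1 via transformation and IMAP2 via mating.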
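Wherever Interaction with viral protein is given: yeast two-hybrid screens using HCV genotype 1b proteins fused to Gal4-DB as baits against prey cDNA libraries from human spleen and foetal brain, IMAP1 via transformation and IMAP2 via mating.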

Molecule | Interaction with viral protein [1] | IMAP Y2H IMAP2 (number of IST) ([2]; HCV protein NS3 as bait) | CoAP [3, 4] | IMAP Y2H IMAP2 (number of IST) ([2]; HCV protein NS5A as bait) | CoAP [3, 5] | IMAP Y2H IMAP2 (number of IST) ([2]; HCV protein NS5B as bait)
B1 | NS3 | 26 | + | – | – | –
B2 | – | – | – | 2 | + | –
B3 | NS3 | 3 | + | – | – | –
B4 | – | – | – | 4 | + | –
B5 | NS3 and NS5A | 1 | + | 38 | + | 14
B6 | NS3 | 2 | + | – | – | –
